In test [1] the target is T1, recombinant human AXL extracellular domain, C-terminally His8-tagged (rhAXL-ECD) (human, UniProt P30530 26-451).
T1 construct: Made in CHO cells; also called (rh)AXL-ECD His8; human AXL ECD
T1 sequence: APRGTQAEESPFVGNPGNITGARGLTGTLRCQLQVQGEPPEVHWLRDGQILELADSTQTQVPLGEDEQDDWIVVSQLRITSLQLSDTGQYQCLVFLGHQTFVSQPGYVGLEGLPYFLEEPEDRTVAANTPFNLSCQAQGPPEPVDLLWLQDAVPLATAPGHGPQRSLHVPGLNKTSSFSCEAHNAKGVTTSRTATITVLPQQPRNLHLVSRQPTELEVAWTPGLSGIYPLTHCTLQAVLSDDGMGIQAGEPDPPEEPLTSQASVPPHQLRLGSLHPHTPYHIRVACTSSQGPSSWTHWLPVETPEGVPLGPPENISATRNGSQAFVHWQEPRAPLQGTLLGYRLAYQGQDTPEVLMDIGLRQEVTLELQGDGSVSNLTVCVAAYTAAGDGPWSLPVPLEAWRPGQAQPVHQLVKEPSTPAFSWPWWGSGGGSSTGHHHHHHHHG
Put plainly: ELISA on coated AXL ECD (100 ng/well), HRP-protein A. As for the experimental part:
(§1) ELISA. ELISAs against human, cyno and mouse AXL ECDs were conducted by immobilizing 100 ng of each protein in wells of Nunc MaxiSorp microplates overnight. Human AXL (aa 1-451) and cyno AXL (aa 1-449) were produced recombinantly as described in Example 10. Mouse AXL was purchased from Sino (cat. 51026-M08H). The next day, plates were blocked with 5% (w/v) dried milk in PBS. Murine mAbs (either hybridoma- or recombinantly-produced) or VHH-Fcs were diluted in PBS containing 1% BSA and 0.1% Tween-20 and added to wells for 2 hours at room temperature. Wells were washed 5× with PBS containing 0.1% Tween-20, then HRP-labeled protein A (diluted 1:1000 in PBS containing 1% BSA and 0.1% Tween™-20) was added to wells for 1 hour at room temperature. Wells were washed again 5× with PBS/0.1% Tween-20 and developed using TMB substrate. Absorbance was measured at 450 nm. As a positive control for mouse AXL binding, a commercial anti-mouse AXL mAb (clone 175128, R&D Systems MAB8541, rat IgG2A) was used and detected with donkey […] secondary antibody.
In general terms: An ELISA detects its analyte on a solid surface through an enzyme-linked reagent.

In test [2] the target is T1, recombinant human AXL extracellular …. In words: SPR Biacore T200, mAb captured on anti-Fc, AXL ECD flowed, single-cycle kinetics. The protocol: (§2) Surface plasmon resonance. For murine mAbs, binding to human and cynomolgus AXL ECD was assessed using a Biacore T200 instrument. Briefly, either anti-mouse or anti-human Fc antibody was immobilized on a research-grade CM5 series S sensor chip using amine coupling in acetate buffer. Murine or recombinant chimeric murine-human mAbs (mouse VH/VL; human constant regions) were captured, then recombinant human or cyno AXL ECD was flowed over the surface at different concentration ranges (0.1-500 nM) depending on the antibody. The running buffer was PBS/Tween-20 and the flow rate 100 uL/min. All binding studies were performed at 25° C. Surfaces were regenerated using 10 mM glycine, pH 1.5.

Test [3] deals with T2, recombinant cynomolgus AXL extracellular domain (cynomolgus).
T2 construct: range 1-449; also called Cyno AXL; cyno AXL ECD
The test is described as above. As for the experimental part: as §2

In test [4] the target is T3, human AXL expressed on the cell surface of tumor cell lines (human, UniProt P30530 26-894).
T3 construct: whole, on cells; also called cell surface-expressed AXL; cell-based AXL
T3 sequence (looked up): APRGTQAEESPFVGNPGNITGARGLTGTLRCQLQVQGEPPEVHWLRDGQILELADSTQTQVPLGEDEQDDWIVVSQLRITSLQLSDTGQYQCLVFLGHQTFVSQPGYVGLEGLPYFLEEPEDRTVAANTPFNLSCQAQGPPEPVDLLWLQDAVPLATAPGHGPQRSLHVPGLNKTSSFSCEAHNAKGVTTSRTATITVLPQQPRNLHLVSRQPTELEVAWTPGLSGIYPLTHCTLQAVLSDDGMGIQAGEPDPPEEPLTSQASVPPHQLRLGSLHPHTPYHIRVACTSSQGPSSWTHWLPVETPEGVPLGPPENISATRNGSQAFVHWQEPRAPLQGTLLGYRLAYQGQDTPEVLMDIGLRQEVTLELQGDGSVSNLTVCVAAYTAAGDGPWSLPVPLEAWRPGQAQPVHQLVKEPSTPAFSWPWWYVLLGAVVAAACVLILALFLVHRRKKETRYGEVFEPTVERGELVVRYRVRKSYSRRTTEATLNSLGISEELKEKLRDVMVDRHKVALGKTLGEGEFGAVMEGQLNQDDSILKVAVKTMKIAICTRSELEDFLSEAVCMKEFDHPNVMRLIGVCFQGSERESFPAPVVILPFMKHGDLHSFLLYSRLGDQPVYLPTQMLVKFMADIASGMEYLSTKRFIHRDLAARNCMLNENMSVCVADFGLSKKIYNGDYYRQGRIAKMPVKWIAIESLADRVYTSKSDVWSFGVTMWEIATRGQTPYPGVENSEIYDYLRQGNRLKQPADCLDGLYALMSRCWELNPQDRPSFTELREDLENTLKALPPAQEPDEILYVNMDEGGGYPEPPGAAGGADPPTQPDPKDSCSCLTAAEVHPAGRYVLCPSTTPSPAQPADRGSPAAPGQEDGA
In words: FACS on MDA-MB-231 luciferase cells, apparent Kd. The protocol:
(§3) FACS binding assay. Adherent cells were dissociated with non-enzymatic Sigma Cell Dissociation Solution (Cat. No. C5789). Cells suspensions were added to polypropylene, V-bottom 96-well plates and incubated for 2 hours on ice with primary antibodies at concentrations ranging from 100 nM to 0.001 nM or at a single dose of 100 nM (for the non-specific control). After incubation and washes, cells were incubated with fluorescently labeled secondary antibody (Alexa Fluor® 488 anti-human IgG from Jackson Cat. No 709-546-098) for 1 hour on ice, then washed. Cell viability was determined using Fixable viability dye 450 (20 min on ice). Stained cells were fixed in 1% formaldehyde at 4° C. and stored at 4° C. until acquisition which was performed the next day.
(§4) Binding of recombinant chimeric Abs to three cell lines was assessed by FACS as described above. The apparent Bmax and Kd determination is shown below in Table 14.

For test [5], the target named is T4, mouse AXL extracellular domain (Sino cat. 51026-M08H) (mouse, UniProt Q00993 19-445).
T4 construct: extracellular domain; Bought protein; also called mouse AXL ECD
T4 sequence (looked up): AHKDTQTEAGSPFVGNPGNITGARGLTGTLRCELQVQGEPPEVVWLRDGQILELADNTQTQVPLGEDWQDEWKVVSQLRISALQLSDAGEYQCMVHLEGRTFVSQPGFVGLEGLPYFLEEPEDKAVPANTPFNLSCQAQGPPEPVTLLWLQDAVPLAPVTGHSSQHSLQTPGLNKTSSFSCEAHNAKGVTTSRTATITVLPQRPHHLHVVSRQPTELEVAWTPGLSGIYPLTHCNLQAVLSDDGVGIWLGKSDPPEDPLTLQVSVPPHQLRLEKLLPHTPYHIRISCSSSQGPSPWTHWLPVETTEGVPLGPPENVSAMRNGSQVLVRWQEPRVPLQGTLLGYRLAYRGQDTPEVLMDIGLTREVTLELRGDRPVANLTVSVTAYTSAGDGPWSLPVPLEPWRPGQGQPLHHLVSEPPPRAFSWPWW
Put plainly: ELISA on coated mouse AXL ECD (100 ng/well). As for the experimental part: as §1

The target of test [6] is T2, recombinant cynomolgus AXL …. Put plainly: SPR Biacore T200, mAb captured on anti-Fc, AXL ECD flowed, steady-state analysis. The protocol: as §2
(Surface plasmon resonance follows binding to a sensor surface in real time, without labels.)

Test [7] deals with T1, recombinant human AXL extracellular …. Put plainly: SPR Biacore T200, mAb captured on anti-Fc, AXL ECD flowed (no footnote in the cell). The protocol: as §2
For test [8], the target named is T3, human AXL expressed on the cell surface …. Put plainly: FACS on SKOV3 cells, apparent Kd. As for the experimental part:
as §3, §4

Test [9] shares this target. In words: FACS on NCI-H292 cells, apparent Kd. The protocol:
as §3, §4

Test [10] deals with T5, huTyro3-ECD displayed on yeast (human, UniProt Q06418 41-429).
T5 construct: extracellular domain
T5 sequence (looked up): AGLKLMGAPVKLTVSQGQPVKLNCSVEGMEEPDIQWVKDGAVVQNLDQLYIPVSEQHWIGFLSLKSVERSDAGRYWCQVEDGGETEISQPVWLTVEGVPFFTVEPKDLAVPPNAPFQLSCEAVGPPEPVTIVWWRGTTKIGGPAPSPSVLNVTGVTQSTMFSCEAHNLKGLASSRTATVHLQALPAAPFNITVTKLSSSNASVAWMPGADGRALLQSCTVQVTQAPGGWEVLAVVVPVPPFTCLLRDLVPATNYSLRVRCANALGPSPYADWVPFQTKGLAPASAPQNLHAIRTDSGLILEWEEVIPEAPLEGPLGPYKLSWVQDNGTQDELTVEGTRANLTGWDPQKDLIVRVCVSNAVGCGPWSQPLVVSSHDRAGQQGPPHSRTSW
Put plainly: yeast surface display ELISA, non-denatured yeast, goat anti-human F(ab')2-HRP.

Test [11] addresses T6, cyAXL-ECD displayed on yeast.
T6 construct: extracellular domain; 'cy' read as cynomolgus
The description is as above.

In test [12] the target is T7, huMER-ECD displayed on yeast (human, UniProt Q12866 21-505).
T7 construct: extracellular domain
T7 sequence (looked up): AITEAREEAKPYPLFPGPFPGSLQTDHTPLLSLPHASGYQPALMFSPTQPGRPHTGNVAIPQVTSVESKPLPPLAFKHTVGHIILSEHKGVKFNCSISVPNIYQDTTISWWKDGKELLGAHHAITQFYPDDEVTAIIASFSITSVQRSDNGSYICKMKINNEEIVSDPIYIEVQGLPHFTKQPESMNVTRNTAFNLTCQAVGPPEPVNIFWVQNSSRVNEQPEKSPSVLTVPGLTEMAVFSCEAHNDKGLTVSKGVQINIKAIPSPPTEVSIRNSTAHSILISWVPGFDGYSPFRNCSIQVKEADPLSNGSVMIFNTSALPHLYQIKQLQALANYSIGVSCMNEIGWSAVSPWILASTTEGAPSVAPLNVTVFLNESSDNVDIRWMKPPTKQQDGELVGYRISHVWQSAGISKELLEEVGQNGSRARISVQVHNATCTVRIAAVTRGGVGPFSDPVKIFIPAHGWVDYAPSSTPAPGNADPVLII
The test is described as above.

Substitutions are numbered along the chain they refer to.

B1: hFC-F111-5E9 (antibody, human IgG1, kappa, V domains shown)
VH: QIQLVQSGPELKKPGETVKISCKASGYTFTKYGMNWVKQAPGKGLKWMGWINTYTGEPTYADDFKGRFAFSLETSASTAYLQINNLTTEDMVTYFCAKGGYYSNPIYPMDYWGQGTSVTVSS
VL: DIQMTQTTSSLSASLGDRVTISCRASQDINNYLNWYQQKPDGTVKLLIYYISRLHSGVPSRFSGSGSGTDYSLTISNLELEDVATYFCQQGNTLPFTFGSGTKLEIKR
notes: Chimeric mAb, human IgG1 / human kappa constant regions; also called mAb F111-5E9; hIgG-F111-5E9
The term EC50 denotes the concentration at which the effect is half-maximal. In general, koff refers to a measure of how fast the partners let go of each other. As a reminder, the kon is the second-order rate constant of association. Consider B1, for which, in test [1], the EC50 was found to be 2 nM. For the same molecule, in [2], the Kd is 2 nM, the koff was determined as 0.0018 s⁻¹ and the kon was found to be 780000 M⁻¹ s⁻¹. Moreover, in [3], the Kd came out at 4 nM, the koff was determined as 0.0027 s⁻¹ and the kon was 690000 M⁻¹ s⁻¹. The Kd in test [4] came out at 0.366 nM. Besides, the binding result in [5] is given as “no binding”.

B2: hFC-F107-8D12 (antibody, human IgG1, kappa, V domains shown)
VH: QVQLQQPGAELVKPGASVQLSCKASGYTFISFWINWVKQRPGQGLEWMGNIFPGSSSTNYNEKFKSKATLTVDKSSSTAYMQLSSLTSEDSAVYFCARDYYGGSPDYWGQGTTLTVSS
VL: DIVMSQSPSSLAVSAGERVTMSCKSSQSLLNTRTRKNYLAWYQQKPGQSPKLLIYWASTRESGVPDRFTGSGSGTDFTLTISSVQAEDLAVYYCKQSYNLWTFGGGTKLEIKR
notes: Chimeric mAb, human IgG1 / human kappa constant regions; also called mAb F107-8D12; chimeric F107-8D12
Take B2: the EC50 in test [1] amounted to 1 nM. Moreover, in test [2], the Kd is 5 nM, the koff stood at 0.013 s⁻¹ and the kon is 2.7e+06 M⁻¹ s⁻¹. Further, in [6], the Kd was 1840 nM. The binding result in test [5] is recorded as “no binding”.

B3: hFC-F107-7H5 (antibody, human IgG1, kappa, V domains shown)
VH: QVQLQQPGAELVKPGASVKLSCKASGYTFTSYWINWVKQRPGQGLEWIGNIYPDSSSTNYNEKFKSKATLTVDKSSTTAYIQFSSLTSEDSAVYYCTRDTYGGSPDYWGQGTTLTVSS
VL: B2 VL with R18K, T32S, N37I, E61Q
notes: Chimeric mAb, mouse VH/VL on human IgG1 heavy and human kappa light constant regions, made in CHO cells; also called mAb F107-7H5; hIgG-F107-7H5
In the case of B3, the EC50 in [1] was determined as 6 nM. Besides, the Kd stood at 1 nM in test [2]; 925 nM in test [6]; 0.07 nM in [8]; 0.17 nM in [4]; 0.0509 nM in [9]. For the same molecule, the koff in test [7] was found to be 0.0015 s⁻¹. In addition, the kon in [7] worked out at 1.4e+06 M⁻¹ s⁻¹. In test [5], the binding result was “no binding”.

B4: NRC-sdAb003-Fc (VHH-human IgG1 Fc fusion) (Fc fusion)
chain: QVQLVESGGGLVQAGGSLRLSCAASGVTLDYTAIGWFRQAPGKERELVAAITSGGNTDYAESAKGRFRISRDNSKNTIYLQMNSLKPEDTGVYYCAARRGGARGEYDYWDQGTQVTVSS
notes: VHH fused N-terminally to human IgG1 Fc; also called NRC-sdAb0003-Fc; NRC-sdAb003-hIgG1; not shown: human IgG1 Fc
As for B4, the “yeast ELISA signal normalized to myc expression level” value in test [10] was -0.005; in test [11] it was 0.668; in test [12] it was -0.009.

These data come from patent US20240076389A1 (NATIONAL RESEARCH COUNCIL OF CANADA, published 2024).
